Measurements published in patent US20250355001A1 (GTINVENT, published 2025).

B1: CB7 scAb (scFv, not shown: small tags and cut ends)
scFv: QVQLQESGPSLVKPSQTLSLTCTVSGFSLTNYRVGWVRQAPGKALEWVSNIRSGGTTWYNPALKSRLSITADTSKSQVSLSLSSVTTEDTAVYYCARDSSGDLYAYDYWGPGLLVTVSSEGKSSGASGESKVDDQAVLTQPSSVSRSLGQSVSMTCSGSSSNVGYGNYMAWFQQVPGSAPKLLIYGATSRASGVPDRFSGSRSGNTATLTISSLQAEDEADYYCASYDSTSGGVFGSGTRLTVLG
notes: scAb
B2: E2A6 scAb (scFv, not shown: small tags and cut ends)
scFv: QVQLQESGPSLVKPSQTLSLTCTVSGFSLTDWGVAWVRQAPGKALEWLGTMRSGGTTDDNPALKSRLSITRDTSKSQVSLSLSSVTTEDMAMYYCARGYLSGVHYAWGRGLLVTVSSEGKSSGASGESKVDDRVVRTQPSSVSKSLGQSVSITCSGSSSNVGAGNYVGWFQQVPGSAPKLLIYGATNRASGVPARFSGSKSGVTATLTITSLQAEDEADYYCASIDTSRSHIFGSGTRLTVLG
notes: scAb

How the values were obtained:
[1] = target: T1, full length human tau protein 2N4R (hT40) (human, UniProt P10636 1-758); test: Biacore
T1 construct: recombinant; also called T441
Outline: (§1)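 scAb captured on flow cell 2 of an antibody-coated chip, flow cell 1 as reference; tau analyte injected 120 s association, 420 s dissociation, glycine pH 2.0 regeneration, in multi-cycle or single-cycle kinetics format. Responses fitted to a 1:1 binding model for kinetics and affinity.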
Target sequence in this assay (P10636 other isoform, or with tags, fused parts or gaps limits assumed): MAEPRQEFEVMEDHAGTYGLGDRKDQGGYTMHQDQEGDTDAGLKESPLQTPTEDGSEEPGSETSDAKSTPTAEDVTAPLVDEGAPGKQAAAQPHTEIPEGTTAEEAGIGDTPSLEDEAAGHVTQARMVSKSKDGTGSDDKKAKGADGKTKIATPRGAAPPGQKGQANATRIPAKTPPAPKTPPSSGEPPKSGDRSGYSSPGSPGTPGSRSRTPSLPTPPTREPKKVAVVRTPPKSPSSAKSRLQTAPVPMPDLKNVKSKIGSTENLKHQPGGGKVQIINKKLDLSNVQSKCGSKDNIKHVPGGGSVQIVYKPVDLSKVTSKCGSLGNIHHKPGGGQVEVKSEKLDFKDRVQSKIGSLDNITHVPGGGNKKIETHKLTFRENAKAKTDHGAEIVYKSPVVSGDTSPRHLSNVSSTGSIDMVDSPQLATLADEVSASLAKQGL

[2] = target: T1, full length human tau protein 2N4R …; test: SPR, summary table
Outline: as §1
Target sequence in this assay (P10636 other isoform, or with tags, fused parts or gaps limits assumed): as above

[3] = target: T2, tau fragment 1-49 (human); test: direct ELISA
T2 construct: also called Tau 1-49
T2 peptide: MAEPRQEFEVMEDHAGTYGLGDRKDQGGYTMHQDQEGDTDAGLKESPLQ

[4] = target: T1, full length human tau protein 2N4R …; test: SPR, scAb captured, tau analyte
Outline: as §1
Target sequence in this assay (P10636 other isoform, or with tags, fused parts or gaps limits assumed): as the sequence (P10636 other isoform, or with tags, fused parts or gaps limits assumed) above

[5] = target: T3, mouse tau (mouse, UniProt P10637 2-733); test: sandwich ELISA on mouse plasma, S1D12 mAb capture
T3 construct: endogenous protein of mouse brain or plasma; also called endogenous mouse tau
Description: After washing and blocking as normal, several known standard solutions were set up in triplicate starting at 20 ng/ml of the desired protein before double diluted in the remaining wells. Mouse samples were added to wells in duplicate with a blank in between each sample group. Line1 plasma was diluted 1:10 before addition to plate to account for its high concentration while other samples were diluted 1:2 to account for potential matrix effects. These samples were left to incubate at RT for 1 hour. HRP-conjugated secondary scAb (conjugation carried out according to manufacturer's guidelines, Abcam) was added to each well and left to incubate at RT for 1 hour. The ELISA was developed using SuperSignal ELISA Femto Substrate (Thermo Scientific) and total luminescence was read on Clariostar Plus plate reader (BMG Labtech). Tau concentrations were established using a 4-parameter fit on concentration curves generated from recombinant tau protein spiked into samples at known concentration. For WT and L66 hT40 was used as a calibrator while dGA was used for L1 calibration.

[6] = target: dGA (tau 297-390) (human, UniProt P10636 614-707); test: sandwich ELISA #1, S1D12 mAb capture, sample C
Description: To this end, an experiment was set up to assess whether the concentrations of different tau species could be determined in spiked samples using various antibody pairings directed towards specific regions of the tau protein.
(§2) Four spiked samples were added to the first wells of designated rows and all samples were double diluted in PBS across the plate including the standard. […] Secondary antibody anti HuCk HRP was added and the reaction was developed and read as described previously. For ELISA #2, 20 nM dGAE was added to the first well and double diluted across the plate for standard curve plotting. As for ELISA #1, spiked samples of unknown protein concentrations were added to respective wells in doubling dilutions. […] For ELISA #3, a standard curve was plotted using average absorbance values obtained from binding events of hT40, dGA and dGAE all at starting concentration of 20 nM.

[7] = target: T4, human tau (hT40) with P301S and G335D of Line 66 mice (human, UniProt P10636 1-758); test: sandwich ELISA on brain homogenate, S1D12 mAb capture
T4 construct: transgene product in brain homogenate or plasma; also called L66 human tau
Description: All animals were female, 7-8 months old except Line 66+/+ which were 5 months old. […] For brain lysate preparation, half brains were sectioned into four and the individual sections were homogenised in 400 μl of ice cold RIPA buffer (Cell signalling Technology) containing protease and phosphatase inhibitors. Total protein concentrations for individual samples were established by BCA-assay and each sample was subsequently diluted to 1 mg/ml for future experiments.
Plate was washed as previously and then blocked for 1 hour at 37° C. in 2% MPBS. Brain homogenate samples (50 ng total protein) from each mouse type were added to the first wells and double diluted across the plate in PBS. These samples were left to incubate at RT for 1 hour. Various detection scAbs encompassing epitopes of interest were then added to the plate at 1 μg/ml and incubated for 1 h at RT. Secondary antibody used was anti-HuCk HRP and the assays were developed as described previously.

[8] = target: T1, full length human tau protein 2N4R …; test: sandwich ELISA, S1D12 mAb capture, scAb detection
Outline: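 Read-out was HRP anti-HuCk with absorbance at 450 nm (positive above 0.3 after background subtraction) or chemiluminescence, including directly HRP-conjugated scAbs.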
Target sequence in this assay (P10636 other isoform, or with tags, fused parts or gaps limits assumed): as the sequence (P10636 other isoform, or with tags, fused parts or gaps limits assumed) above

[9] = target: T1, full length human tau protein 2N4R …; test: sandwich ELISA, hT40 titrated, S1D12 mAb capture, CB7 scAb at 1 µg/ml
Description: as §2

[10] = target: T5, dGAE (tau 297-391) (human, UniProt P10636 614-708); test: ELISA
T5 construct: monomer; also called dGAE95
Outline: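 Plates were coated with 1 μg/ml tau protein or truncated fragment, or with 5 μg/ml streptavidin followed by 1 μg/ml biotinylated 13mer peptide, then blocked with 2% MPBS. Anti-tau scAbs were added at a starting concentration and double diluted. Bound scAb was detected with HRP-conjugated anti-human C kappa by absorbance.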

[11] = target: T1, full length human tau protein 2N4R …; test: direct binding ELISA

Chain of dGA (tau 297-390) (P10636 614-707 limits assumed): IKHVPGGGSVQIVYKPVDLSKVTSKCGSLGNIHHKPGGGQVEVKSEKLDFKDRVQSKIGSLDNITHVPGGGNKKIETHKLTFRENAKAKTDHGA
T5 sequence (P10636 614-708 limits assumed): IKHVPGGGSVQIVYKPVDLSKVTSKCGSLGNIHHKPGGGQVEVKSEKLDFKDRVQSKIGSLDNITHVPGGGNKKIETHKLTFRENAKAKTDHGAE
T3 sequence (P10637 other isoform, or with tags, fused parts or gaps limits assumed): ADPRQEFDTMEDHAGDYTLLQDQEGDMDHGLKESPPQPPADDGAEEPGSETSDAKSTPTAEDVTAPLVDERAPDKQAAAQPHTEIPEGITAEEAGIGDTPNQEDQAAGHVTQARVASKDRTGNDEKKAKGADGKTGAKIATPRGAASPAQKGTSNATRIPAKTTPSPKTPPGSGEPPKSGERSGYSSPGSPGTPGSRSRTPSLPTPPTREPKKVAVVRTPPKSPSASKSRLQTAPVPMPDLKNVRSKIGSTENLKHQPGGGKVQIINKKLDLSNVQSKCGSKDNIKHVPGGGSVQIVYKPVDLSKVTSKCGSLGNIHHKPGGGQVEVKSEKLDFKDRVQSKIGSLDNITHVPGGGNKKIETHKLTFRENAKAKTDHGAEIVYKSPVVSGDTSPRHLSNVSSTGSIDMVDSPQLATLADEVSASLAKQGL

Binder | Kd [1] | Kd [2] | binding result [3] | Kd [4] | koff [4] | kon [4] | binding result [5] | binding result [6] | binding result [7] | LoD chemiluminescence detection [8] | LoD colourimetric detection [8] | EC50 (read off the curve) [9] | binding result [10] | binding result [11]
B1 | 5.2 nM | 5.19 nM | binds | 5.19 nM | 0.000694 s⁻¹ | 133000 M⁻¹ s⁻¹ | no binding | no binding (tested: 2 nM dGA) | binds | 3.33 ng/mL | 15 ng/mL | ~4 nM |  | 
B2 |  |  |  |  |  |  |  |  |  |  |  |  | binds | no binding
